In doi:10.1101/2020.08.12.247809 (bioRxiv, 2020):

Tests used:
SEC = biological target: the molecule itself; assay: SEC
GST-HDAC1 = GST-HDAC1 (mouse, UniProt O09106 1-482); assay: pull-down
Chain of GST-HDAC1 (O09106 whole entry): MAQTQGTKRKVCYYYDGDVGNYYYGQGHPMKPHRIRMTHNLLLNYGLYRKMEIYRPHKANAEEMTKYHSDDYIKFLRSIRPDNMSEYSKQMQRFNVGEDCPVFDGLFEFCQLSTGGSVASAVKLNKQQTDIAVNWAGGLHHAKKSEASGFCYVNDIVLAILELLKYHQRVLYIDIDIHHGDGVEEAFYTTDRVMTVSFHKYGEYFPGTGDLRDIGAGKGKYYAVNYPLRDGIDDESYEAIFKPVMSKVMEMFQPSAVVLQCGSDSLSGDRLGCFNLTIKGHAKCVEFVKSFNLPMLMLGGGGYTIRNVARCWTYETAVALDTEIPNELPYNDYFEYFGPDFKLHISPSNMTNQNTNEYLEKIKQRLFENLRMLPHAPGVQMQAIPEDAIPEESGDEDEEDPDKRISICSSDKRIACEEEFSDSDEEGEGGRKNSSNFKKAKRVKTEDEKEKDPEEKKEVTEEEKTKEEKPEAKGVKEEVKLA

binding result (GST-HDAC1): binds
B1: His6-KIAA1841(BTB) (domain or fragment, mouse, UniProt Q68FF0-1 144-261, looked up)
chain: GPNMVIHVCDEAKSLKEDFICPRDLLISEMKYFAEYLSMDAQRWEEVDISVHCDVHIFNWLIKYVKRNTKESKDCEIPALEPGNVISILISSEFLKMDSLVEQCIQYCHKNMNAIVAA
stoichiometry N (SEC): 2
